Source: patent publication US20040087506A1, “Methods of modulating FabH activity” (SmithKline Beecham Corporation, priority 1999, published 2004)

Substrate: CC(=O)SCCNC(=O)CCNC(=O)[C@H](O)C(C)(C)COP(=O)(O)OP(=O)(O)OC[C@H]1O[C@@H](n2cnc3c(N)ncnc32)[C@H](O)[C@@H]1OP(=O)(O)O
Experiment: purified protein, by the assay type
Conditions: other: substrate of FabH; ping-pong mechanism, acetyl-CoA first substrate, malonyl-ACP second

B1: E. coli FabH (Escherichia coli K-12) (protein)
chain: MYTKIIGTGSYLPEQVRTNADLEKMVDTSDEWIVTRTGIRERHIAAPNETVSTMGFEAATRAIEMAGIEKDQIGLIVVATTSATHAFPSAACQIQSMLGIKGCPAFDVAAACAGFTYALSVADQYVKSGAVKYALVVGSDVLARTCDPTDRGTIIIFGDGAGAAVLAASEEPGIISTHLHADGSYGELLTLPNADRVNPENSIHLTMAGNEVFKVAVTELAHIVDETLAANNLDRSQLDWLVPHQANLRIISATAKKLGMSMDNVVVTLDRHGNTSAASVPCALDEAVRDGRIKPGQLVLLEAFGGGFTWGSALVRF
**Q.** For B1, which Km is on record?
**A.** 34 µM
